Reference: US20220340682A1 (Sanofi, published 2022)

T1: cCEACAM5, M. fascicularis CEACAM5 ECD (35-688) (Macaca fascicularis)
T1 construct: ECD followed by a 24 amino acid extension containing a His-Tag; also called cynomolgus CEACAM5; monkey CEACAM5
T1 chain: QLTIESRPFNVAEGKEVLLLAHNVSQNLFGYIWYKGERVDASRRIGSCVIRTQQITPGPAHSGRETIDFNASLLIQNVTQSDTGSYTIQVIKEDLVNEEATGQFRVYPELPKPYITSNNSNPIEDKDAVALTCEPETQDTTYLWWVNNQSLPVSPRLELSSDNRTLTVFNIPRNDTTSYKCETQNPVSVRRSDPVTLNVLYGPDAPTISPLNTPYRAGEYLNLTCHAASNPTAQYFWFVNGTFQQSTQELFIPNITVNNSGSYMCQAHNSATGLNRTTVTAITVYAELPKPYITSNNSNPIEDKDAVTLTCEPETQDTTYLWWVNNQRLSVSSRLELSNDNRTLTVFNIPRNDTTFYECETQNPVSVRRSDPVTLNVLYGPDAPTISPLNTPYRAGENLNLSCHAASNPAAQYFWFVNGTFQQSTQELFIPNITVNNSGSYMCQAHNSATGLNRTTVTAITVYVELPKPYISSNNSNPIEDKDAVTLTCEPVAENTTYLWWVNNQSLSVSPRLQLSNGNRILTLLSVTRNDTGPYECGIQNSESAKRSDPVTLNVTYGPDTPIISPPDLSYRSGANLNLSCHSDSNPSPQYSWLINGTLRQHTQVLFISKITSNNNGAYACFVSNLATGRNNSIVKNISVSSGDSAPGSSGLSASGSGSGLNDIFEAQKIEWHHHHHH

T2: hCEACAM5, human CEACAM5 ECD (35-685) (human, UniProt P06731 35-685)
T2 construct: produced in HEK293; also called human CEACAM5 protein; human CEACAM5 extracellular domain
T2 sequence: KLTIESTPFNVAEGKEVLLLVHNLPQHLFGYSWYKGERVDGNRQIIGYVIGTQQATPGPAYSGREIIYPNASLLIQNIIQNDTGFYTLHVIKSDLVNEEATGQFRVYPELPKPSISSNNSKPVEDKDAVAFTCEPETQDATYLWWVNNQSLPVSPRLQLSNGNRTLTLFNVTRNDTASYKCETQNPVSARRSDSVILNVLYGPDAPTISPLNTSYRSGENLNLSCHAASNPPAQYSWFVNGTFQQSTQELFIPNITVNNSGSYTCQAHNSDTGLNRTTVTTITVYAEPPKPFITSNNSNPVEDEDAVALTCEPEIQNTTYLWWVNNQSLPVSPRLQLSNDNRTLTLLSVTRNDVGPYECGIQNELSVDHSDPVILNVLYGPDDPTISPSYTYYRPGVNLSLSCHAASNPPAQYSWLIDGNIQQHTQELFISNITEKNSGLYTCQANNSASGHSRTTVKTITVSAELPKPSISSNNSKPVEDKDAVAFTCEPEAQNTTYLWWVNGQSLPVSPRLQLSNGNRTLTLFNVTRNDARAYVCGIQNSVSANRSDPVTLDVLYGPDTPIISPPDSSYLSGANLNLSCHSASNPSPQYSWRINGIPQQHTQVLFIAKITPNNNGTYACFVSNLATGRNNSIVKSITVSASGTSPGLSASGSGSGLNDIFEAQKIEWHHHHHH

T3: cCEACAM6, M. fascicularis CEACAM6 ECD (35-327) (Macaca fascicularis)
T3 construct: With 24 amino acid extension containing a His-Tag; also called cynomolgus CEACAM6
T3 chain: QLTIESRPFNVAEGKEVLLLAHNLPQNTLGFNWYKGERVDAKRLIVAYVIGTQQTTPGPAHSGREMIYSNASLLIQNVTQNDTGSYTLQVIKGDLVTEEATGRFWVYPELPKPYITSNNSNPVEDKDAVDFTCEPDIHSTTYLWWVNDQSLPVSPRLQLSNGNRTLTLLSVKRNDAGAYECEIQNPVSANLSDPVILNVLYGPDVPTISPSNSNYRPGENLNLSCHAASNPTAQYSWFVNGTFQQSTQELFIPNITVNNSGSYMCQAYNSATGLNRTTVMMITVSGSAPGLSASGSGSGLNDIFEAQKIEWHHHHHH

T4: hCEACAM7, human CEACAM7 ECD (36-248) (human)
T4 construct: With 24 amino acid extension containing a His-Tag
T4 chain: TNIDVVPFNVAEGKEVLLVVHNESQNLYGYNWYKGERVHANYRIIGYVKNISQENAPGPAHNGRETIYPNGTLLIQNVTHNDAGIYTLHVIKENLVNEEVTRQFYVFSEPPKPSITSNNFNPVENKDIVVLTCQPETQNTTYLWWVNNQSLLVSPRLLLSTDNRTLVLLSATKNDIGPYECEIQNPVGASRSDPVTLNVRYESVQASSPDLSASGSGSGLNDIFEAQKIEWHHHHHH


Experiments:
[1] = molecular target: T1, cCEACAM5, M. fascicularis CEACAM5 ECD …; assay: SPR (BIAcore 2000), mAb captured by anti-human Fc, antigen injected 1-500 nM
Experimental: (§1) The binding kinetics of humanized anti-CEACAM5_MAb2 variants, compared with chimeric MAb2, to recombinant human CEACAM5 (hCEACAM5) and cynomolgus monkey CEACAM5 (cCEACAM5) were determined by surface plasmon resonance assay using a BlAcore 2000 (BlAcore Inc., Uppsala, N.J.).
(§2) Briefly, a CM5 BlAcore biosensor chip was docked into the instrument and activated with 70 μL of 1:1 NHS/EDC at room temperature. A mouse anti-ahuman Fc IgG1 (BlAcore # BR-1008-39) (50 μg/mL in […] acetate buffer, pH5) were immobilized on the activated chips in all flow cells. The immobilization was carried out at a flow rate of 10 μL/min up to saturation. The chip was then blocked by injection of 70 μL of ethanolamine-HCl, pH8.5, followed by one wash with 3M MgCl2. To measure the binding of anti-CEACAM5 mAbs to the human CEACAM5 protein or cynomolgus CEACAM5 protein, antibodies were used at 1-5 μg/mL in BlAcore running buffer (HBS-EP). Antigens (human CEACAM5 or cynomolgus CEACAM5) were injected from 1 to 500 nM. Following completion of the injection phase, dissociation was monitored in a BlAcore running buffer at the same flow rate for 600 sec. The surface was regenerated between injections using 2×5 μL MgCl2 3M (2×30s). Individual sensorgrams were analyzed using BlAevaluation software.

[2] = molecular target: T2, hCEACAM5, human CEACAM5 ECD (35-685); assay: as above
Experimental: as §1, §2

[3] = molecular target: T3, cCEACAM6, M. fascicularis CEACAM6 ECD …; assay: ELISA
[4] = molecular target: T4, hCEACAM7, human CEACAM7 ECD (36-248); assay: ELISA

Binder | Kd [1] [nM] | Kd [2] [nM] | percentage of binding compared to full binding with cynomolgus CEACAM5 [3] [%] | percentage of binding compared to full binding with human CEACAM5 [4] [%]
huMAb2-3 (antibody, human IgG1, kappa, V domains shown, Humanized MAb2, human IgG1 / Ckappa; also called MAb2_VL1cVH1a-IgG1) VH: EVQLQESGPGLVKPGGSLSLSCAASGFVFSSYDMSWVRQTPERGLEWVAYISSGGGITYAPSTVKGRFTVSRDNAKNTLYLQMNSLTSEDTAVYYCAAHYFGSSGPFAYWGQGTLVTVSS VL: DIQMTQSPASLSASVGDRVTITCRASENIFSYLAWYQQKPGKSPKLLVYNTRTLAEGVPSRFSGSGSGTDFSLTISSLQPEDFATYYCQHHYGTPFTFGSGTKLEIKR | 73.5 | 11.7 | 0.4 | 0.3
huMAb2-1 (antibody, V domains shown, Humanized MAb2 (VL1 + VH1) fused to human IgG1 and human Ckappa constant domains; also called MAb2_VL1VH1-IgG1; MAb2VL1VH1-IgG1) VH: EVQLQESGPGLVKPGGSLSLSCAASGFVFSSYDMSWVRQTPERRLEWVAYISSGGGITYFPSTVKGRFTVSRDNAKNTLYLQMNSLTSEDTAIYYCAAHYFGSSGPFAYWGQGTLVTVSA VL: DIQMTQSPASLSASVGDTVTITCRASENIFSYLAWYQQKPGKSPKLLVYNTKTLAEGVPSRFSGSGSGTQFSLTISSLQPEDFGSYYCQHHYGTPFTFGSGTKLEIK | 41.7 | 9.8 | 0.3 | 0.3
huMAb2-4 (antibody, human IgG1, kappa, V domains shown, Humanized MAb2, human IgG1 / Ckappa; also called MAb2_VL1d VH1-IgG1; MAb2_VL1dVH1-IgG1) VH: EVQLQESGPGLVKPGGSLSLSCAASGFVFSSYDMSWVRQTPERRLEWVAYISSGGGITYFPSTVKGRFTVSRDNAKNTLYLQMNSLTSEDTAIYYCAAHYFGSSGPFAYWGQGTLVTVSA VL: DIQMTQSPASLSASVGDTVTITCRASENIFSYLAWYQQKPGKSPKLLVYNTRTLAEGVPSRFSGSGSGTQFSLTISSLQPEDFGSYYCQHHYGTPFTFGSGTKLEIKR | 38.6 | 6.9 | 0.3 | 0.3
chMAb2 (antibody, human IgG1, kappa, V domains shown, Chimeric, human IgG1, Ck isotype; also called MAb2-IgG1; chimeric MAb2) VH: EVQLQESGGVLVKPGGSLKLSCAASGFVFSSYDMSWVRQTPEKRLEWVAYISSGGGITYFPDTVQGRFTVSRDNAKNTLYLQMNSLKSEDTAIYYCAAHYFGSSGPFAYWGQGTLVTVSA VL: DIQMTQSPASLSASVGETVTITCRASENIFSYLAWYQQKQGKSPQLLVYNTKTLAEGVPSRFSGSGSGTQFSLKINSLQPEDFGSYYCQHHYGTPFTFGSGTKLEIKR | 52.3 | 9.9 | 0.3 | 0.3
huMAb2-2 (antibody, V domains shown, Humanized MAb2 (VL1a + VH1a) fused to human IgG1 and human Ckappa constant domains; also called MAb2_VL1aVH1a-IgG1; MA2_VL1aVH1a-IgG1) VH: EVQLQESGPGLVKPGGSLSLSCAASGFVFSSYDMSWVRQTPERGLEWVAYISSGGGITYAPSTVKGRFTVSRDNAKNTLYLQMNSLTSEDTAVYYCAAHYFGSSGPFAYWGQGTLVTVSS VL: DIQMTQSPASLSASVGDRVTITCRASENIFSYLAWYQQKPGKSPKLLVYNTKTLAEGVPSRFSGSGSGTDFSLTISSLQPEDFATYYCQHHYGTPFTFGSGTKLEIK | 96 | 24.5 | 0.3 | 0.3
